Assay results taken from publication doi:10.1101/2025.10.16.682859 (bioRxiv, 2025).

Molecular target: the molecule itself
Test: cryo-EM structure

B1: human asparagine synthetase (ASNS) (enzyme)
chain: CGIWALFGSDDCLSVQCLSAMKIAHRGPDAFRFENVNGYTNCCFGFHRLAVVDPLFGMQPIRVKKYPYLWLCYNGEIYNHKKMQQHFEFEYQTKVDGEIILHLYDKGGIEQTICMLDGVFAFVLLDTANKKVFLGRDTYGVRPLFKAMTEDGFLAVCSEAKGLVTLKHSATPFLKVEPFLPGHYEVLDLKPNGKVASVEMVKYHHCRDVPLHALYDNVEKLFPGFEIETVKNNLRILFNNAVKKRLMTDRRIGCLLSGGLDSSLVAATLLKQLKEAQVQYPLQTFAIGMEDSPDLLAARKVADHIGSEHYEVLFNSEEGIQALDEVIFSLETYDITTVRASVGMYLISKYIRKNTDSVVIFSGEGSDELTQGYIYFHKAPSPEKAEEESERLLRELYLFDVLRADRTTAAHGLELRVPFLDHRFSSYYLSLPPEMRIPKNGIEKHLLRETFEDSNLIPKEILWRPKEAFSDGITSVKNSWFKILQEYVEHQVDDAMMANAAQKFPFNTPKTKEGYYYRQVFERHYPGRADWLSHYWMPKWINATDPSARTLTHYKSAVKA
  stoichiometry N: 2
